Biological target: the molecule itself
Experiment: ESI-MS; peptide 100 uM in 10 mM borate buffer pH 9, incubated with compound 2 (1:10) for 0 h (UV-irradiated) or 24 h (not irradiated), diluted in 15 mM ammonium acetate

B1: nucleophosmin 1 (NPM1) 264-277, second helix (H2) of the C-terminal domain (peptide)
peptide: Ac-VEAKFINYVKNCFR-NH2
notes: nucleophosmin 1 (NPM1), helix H2 of the C-terminal domain, residues 264-277; By ESI-MS the peptide is present as a monomer and as a disulfide-bridged dimer; also called NMP1_(264–277); NPM1_(264–277)(M); source: synthetic peptide (SPPS), treated with HFIP, purified by RP-HPLC
- stoichiometry N: 2

From article PMC7464691, “Modulation of Amyloidogenic Peptide Aggregation by Photoactivatable CO-Releasing Ruthenium(II) Complexes” (Pharmaceuticals, 2020)
